Assay [1] concerns the target T1, human CD28 (human, UniProt P10747 19-152).
T1 construct: also called Cluster of Differentiation 28; Tp44
As to the kind of experiment: affinity; method not given.

Assay [2] deals with T1, human CD28. As to the kind of experiment: CD28 affinity of the scFv arm as quoted in the text; method not given.
Assay [3] deals with T2, CEACAM5 (UniProt P06731 35-685).
T2 construct: also called carcinoembryonic antigen-related cell adhesion molecule 5; CD66e
T2 sequence (looked up): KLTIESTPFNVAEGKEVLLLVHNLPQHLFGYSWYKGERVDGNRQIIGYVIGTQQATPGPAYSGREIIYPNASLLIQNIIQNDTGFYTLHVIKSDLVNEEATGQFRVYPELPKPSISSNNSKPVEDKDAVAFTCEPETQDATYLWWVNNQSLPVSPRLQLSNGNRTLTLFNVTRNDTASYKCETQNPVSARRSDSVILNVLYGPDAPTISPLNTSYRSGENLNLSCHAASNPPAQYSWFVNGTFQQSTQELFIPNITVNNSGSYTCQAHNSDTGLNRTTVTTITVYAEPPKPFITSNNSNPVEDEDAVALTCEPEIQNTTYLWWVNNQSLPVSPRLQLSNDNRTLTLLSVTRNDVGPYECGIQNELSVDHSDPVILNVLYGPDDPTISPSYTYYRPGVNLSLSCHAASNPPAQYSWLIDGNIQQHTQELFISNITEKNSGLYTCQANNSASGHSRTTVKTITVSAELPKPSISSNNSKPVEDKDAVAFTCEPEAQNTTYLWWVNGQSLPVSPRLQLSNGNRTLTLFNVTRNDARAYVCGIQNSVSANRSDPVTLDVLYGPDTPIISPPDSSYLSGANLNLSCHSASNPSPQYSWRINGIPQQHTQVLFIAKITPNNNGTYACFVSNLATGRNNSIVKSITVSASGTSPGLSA
Briefly: CEACAM5 affinity as quoted in the text; method not given.

Assay [4] addresses T2, CEACAM5. Briefly: affinity at 25 C (Octet per FIG. 79 legend).
In assay [5] the target is T2, CEACAM5. As to the kind of experiment: binding affinity (Octet at 25 C per FIG. 80 legend).
The target of the next assay is T3, CEACAM8 (UniProt P31997 35-320).
T3 sequence (looked up): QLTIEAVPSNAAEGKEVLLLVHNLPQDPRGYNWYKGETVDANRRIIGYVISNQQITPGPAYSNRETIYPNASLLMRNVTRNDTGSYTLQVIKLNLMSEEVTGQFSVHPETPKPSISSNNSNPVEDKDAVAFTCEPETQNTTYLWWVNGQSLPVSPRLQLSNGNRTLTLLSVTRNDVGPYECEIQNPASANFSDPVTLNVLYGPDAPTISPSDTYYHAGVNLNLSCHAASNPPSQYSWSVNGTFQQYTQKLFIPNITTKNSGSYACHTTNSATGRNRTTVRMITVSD
The assay is described as above.

In assay [6] the target is T1, human CD28. Briefly: CD28 affinity as quoted in the text; method not given.
The next assay concerns the target T4, STEAP1 (UniProt Q9UHE8 1-339, limits assumed).
T4 construct: whole, on cells; also called Six-Transmembrane Epithelial Antigen of the Prostate 1
Briefly: flow cytometry, bivalent mAbs on C4-2B cells. The protocol: Optimized humanized STEAP-A variants were then engineered in order to improve their binding affinity to STEAP-1. In the first round, 82 variant VLs were engineered as L1.4-L1.85 and 151 variant VHs were engineered as H1.39-H1.189. Variants were produced as bivalent mAbs, the sequences for which are depicted in FIG. 30. The bivalent mAbs were then screened for binding to STEAP-1 on C4-2B cells. Cells were mixed with mAbs and incubated for 1 hour on ice, washed with PBS, stained with secondary antibody for 1 hour on ice, and washed again before analyzing binding utilizing flow cytometry.
In the second round, 34 variant VLs were engineered and designated as L1.86-L1.119 and 39 variant VHs were engineered and designated as H1.190-H1.228. Bivalent mAbs from the second round of affinity maturation were also screened for binding to STEAP-1 expressed on C4-2B cells. Flow cytometry analysis was used to determine relative maximum MFI values, AUC values, and approximate EC50 values for each test article, as summarized in FIG. 34. […] A final set of variable heavy domain substitutions were engineered and designated H1.229- H1.232. […] Sequences for each variant VH and VL are depicted in FIGS. 31 and 32, respectively.

Numbering of substitutions follows the chain as printed.

The text below walks through data of US20250043001A1 (Xencor, published 2025).

B1: 1A7_H1.14_L1 (antibody, V domains shown)
VH: EVQLLESGGGLVQPGGSLRLSCAASGFTFSSYYMSWVRQAPGKGLEWVSTISESGDSTYYADSVKGRFTISRDNSKNTLYLQMNSLRAEDTAVYYCAKSGPGLRQVGFDYWGQGTLVTVSS
VL: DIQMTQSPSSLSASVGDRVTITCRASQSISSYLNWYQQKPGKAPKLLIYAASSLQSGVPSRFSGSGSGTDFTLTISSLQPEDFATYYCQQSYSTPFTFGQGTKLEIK
notes: Anti-CD28 VH/VL pair; also called 1A7[CD28]_H1.14_L1
In the case of B1, the Kd with human CD28 [1] was around 200 nM.

B2: XENP44332 (bispecific antibody)
heavy: EVKLVESGGGLVQPGGSLRLSCATSGFTFTDYYMNWVRQPPGKALEWLGFIGNKANGYTTEYSASVKGRFTISRDKSQSILYLQMNTLRAEDSATYYCTRDRGLRFYFDYWGQGTTLTVSSASTKGPSVFPLAPSSKSTSGGTAALGCLVKDYFPEPVTVSWNSGALTSGVHTFPAVLQSSGLYSLSSVVTVPSSSLGTQTYICNVNHKPSDTKVDKKVEPKSCDKTHTCPPCPAPPVAGPSVFLFPPKPKDTLMISRTPEVTCVVVDVKHEDPEVKFNWYVDGVEVHNAKTKPREEEYNSTYRVVSVLTVLHQDWLNGKEYKCKVSNKALPAPIEKTISKAKGQPREPQVYTLPPSREEMTKNQVSLTCDVSGFYPSDIAVEWESDGQPENNYKTTPPVLDSDGSFFLYSKLTVDKSRWEQGDVFSCSVMHEALHNHYTQKSLSLSPGK
scFv-Fc: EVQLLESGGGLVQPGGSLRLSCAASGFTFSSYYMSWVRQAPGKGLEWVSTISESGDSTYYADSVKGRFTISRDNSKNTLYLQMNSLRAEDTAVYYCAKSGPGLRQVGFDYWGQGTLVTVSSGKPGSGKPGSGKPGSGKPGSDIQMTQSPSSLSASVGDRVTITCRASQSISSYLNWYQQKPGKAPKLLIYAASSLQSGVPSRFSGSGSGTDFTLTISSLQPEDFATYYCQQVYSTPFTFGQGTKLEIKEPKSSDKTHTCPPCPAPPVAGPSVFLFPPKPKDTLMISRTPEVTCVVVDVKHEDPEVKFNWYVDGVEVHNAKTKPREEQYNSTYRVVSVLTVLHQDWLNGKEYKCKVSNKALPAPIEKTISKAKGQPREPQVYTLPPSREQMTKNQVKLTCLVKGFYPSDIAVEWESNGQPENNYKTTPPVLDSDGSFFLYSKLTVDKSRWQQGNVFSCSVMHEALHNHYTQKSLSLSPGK
light: QTVLSQSPAILSASPGEKVTMTCRASSSVTYIHWYQQKPGSSPKSWIYATSNLASGVPARFSGSGSGTSYSLTISRVEAEDAATYYCQHWSSKPPTFGGGTKLEIKRTVAAPSVFIFPPSDEQLKSGTASVVCLLNNFYPREAKVQWKVDNALQSGNSQESVTEQDSKDSTYSLSSTLTLSKADYEKHKVYACEVTHQGLSSPVTKSFNRGEC
Consider B2, for which, in the assay with human CD28 [2], the Kd stood at 37 nM.

B3: XENP44338 (bispecific antibody)
heavy: B2 heavy
scFv-Fc: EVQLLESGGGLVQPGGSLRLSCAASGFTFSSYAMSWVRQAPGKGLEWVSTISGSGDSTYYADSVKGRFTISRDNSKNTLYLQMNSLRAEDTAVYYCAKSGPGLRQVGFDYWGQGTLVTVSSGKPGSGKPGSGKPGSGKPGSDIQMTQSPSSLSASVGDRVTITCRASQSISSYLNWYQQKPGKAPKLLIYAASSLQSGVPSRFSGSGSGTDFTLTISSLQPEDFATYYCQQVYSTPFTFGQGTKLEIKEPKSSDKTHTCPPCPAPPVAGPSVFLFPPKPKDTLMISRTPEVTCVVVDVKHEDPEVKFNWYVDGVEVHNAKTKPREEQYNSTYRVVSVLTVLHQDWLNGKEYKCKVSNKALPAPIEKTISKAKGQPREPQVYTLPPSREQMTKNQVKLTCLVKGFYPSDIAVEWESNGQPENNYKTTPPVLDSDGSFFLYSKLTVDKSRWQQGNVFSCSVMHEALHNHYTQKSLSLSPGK
light: B2 light
Consider B3, for which the Kd in the assay with CEACAM5 [3] was around 0.7 nM.

B4: XENP44560 (bispecific antibody)
heavy: B2 heavy
scFv-Fc: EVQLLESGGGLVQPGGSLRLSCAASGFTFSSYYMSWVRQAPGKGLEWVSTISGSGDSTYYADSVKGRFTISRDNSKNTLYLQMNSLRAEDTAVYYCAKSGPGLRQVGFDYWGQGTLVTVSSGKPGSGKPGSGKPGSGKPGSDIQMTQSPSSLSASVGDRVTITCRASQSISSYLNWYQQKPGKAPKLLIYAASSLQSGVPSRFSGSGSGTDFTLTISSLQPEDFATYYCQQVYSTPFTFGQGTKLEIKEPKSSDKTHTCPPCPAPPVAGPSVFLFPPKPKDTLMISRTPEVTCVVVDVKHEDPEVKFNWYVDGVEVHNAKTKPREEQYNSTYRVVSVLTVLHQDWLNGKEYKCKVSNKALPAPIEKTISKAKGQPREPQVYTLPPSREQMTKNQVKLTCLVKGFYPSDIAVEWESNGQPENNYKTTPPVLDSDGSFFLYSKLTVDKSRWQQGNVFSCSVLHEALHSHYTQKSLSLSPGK
light: B2 light
notes: copies: 1 + 1 + 1
B4 came in with a Kd in the assay with human CD28 [2] of 96 nM.

B5: CEA-A_H1L2 (antibody, V domains shown)
VH: EVQLVESGGGLVQPGGSLRLSCATSGFTFTDYYMNWVRQAPGKALEWVGFIGNKANGYTTEYSASVKGRFTISRDKSKSSLYLQMNSLKTEDTAVYYCTRDRGLRFYFDYWGQGTLVTVSS
VL: EIVLTQSPATLSLSPGERATLSCRASSSVTYIHWYQQKPGQAPRLLIYATSNLASGIPARFSGSGSGTDFTLTISSLEPEDFAVYYCQHWSSKPPTFGGGTKVEIK
notes: also called HIL2
For the molecule B5, the Kd with CEACAM5 [4] lay within 57 to 69 nM.

B6: XENP44746 (bispecific antibody)
chain 1: B5 VH
chain 2: B5 VL
chain 3: not shown
Molecule B6 gave a Kd with CEACAM5 [3] of 57 nM.

B7: XENP44745 (bispecific antibody)
chain 1: B5 VH
chain 2: B5 VL with E1Q, I2T, A42S, L45S, I57V, F70Y
chain 3: not shown
B7 displayed a Kd with CEACAM5 [3] of 5 nM. Against the preceding molecule, the Kd is about 11-fold lower.

B8: CEA-A_H1L1 (antibody, V domains shown)
VH: B5 VH
VL: B5 VL with E1Q, I2T, A42S, L45S, I57V, F70Y
notes: also called humanized H1L1
In the assay with CEACAM5 [4], B8 returned a Kd of 5 to 8 nM.

B9: CEA-A_H1.7_L2.15 (antibody, V domains shown)
VH: B5 VH with T24A, A44G, G57A
VL: B5 VL with R44K, L45S
In the case of B9, the Kd in the assay with CEACAM5 [5] was determined as 13 nM; with CEACAM8, 3330 nM.

B10: CEA-A_H0L0 (antibody, V domains shown)
VH: EVKLVESGGGLVQPGGSLRLSCATSGFTFTDYYMNWVRQPPGKALEWLGFIGNKANGYTTEYSASVKGRFTISRDKSQSILYLQMNTLRAEDSATYYCTRDRGLRFYFDYWGQGTTLTVSS
VL: QTVLSQSPAILSASPGEKVTMTCRASSSVTYIHWYQQKPGSSPKSWIYATSNLASGVPARFSGSGSGTSYSLTISRVEAEDAATYYCQHWSSKPPTFGGGTKLEIK
notes: also called parental CEA-A
B10 showed a Kd with CEACAM5 [4] of 0.7 to 2 nM.

B11: XENP45915 (bispecific antibody)
heavy: EVQLVESGGGLVQPGGSLRLSCAASGFTFTDYYMNWVRQAPGKGLEWVGFIGNKANAYTTEYSASVKGRFTISRDKSKSSLYLQMNSLKTEDTAVYYCTRDRGLRFYFDYWGQGTLVTVSSASTKGPSVFPLAPSSKSTSGGTAALGCLVKDYFPEPVTVSWNSGALTSGVHTFPAVLQSSGLYSLSSVVTVPSSSLGTQTYICNVNHKPSDTKVDKKVEPKSCDKTHTCPPCPAPPVAGPSVFLFPPKPKDTLMISRTPEVTCVVVDVKHEDPEVKFNWYVDGVEVHNAKTKPREEEYNSTYRVVSVLTVLHQDWLNGKEYKCKVSNKALPAPIEKTISKAKGQPREPQVYTLPPSREEMTKNQVSLTCDVSGFYPSDIAVEWESDGQPENNYKTTPPVLDSDGSFFLYSKLTVDKSRWEQGDVFSCSVLHEALHSHYTQKSLSLSPGK
scFv-Fc: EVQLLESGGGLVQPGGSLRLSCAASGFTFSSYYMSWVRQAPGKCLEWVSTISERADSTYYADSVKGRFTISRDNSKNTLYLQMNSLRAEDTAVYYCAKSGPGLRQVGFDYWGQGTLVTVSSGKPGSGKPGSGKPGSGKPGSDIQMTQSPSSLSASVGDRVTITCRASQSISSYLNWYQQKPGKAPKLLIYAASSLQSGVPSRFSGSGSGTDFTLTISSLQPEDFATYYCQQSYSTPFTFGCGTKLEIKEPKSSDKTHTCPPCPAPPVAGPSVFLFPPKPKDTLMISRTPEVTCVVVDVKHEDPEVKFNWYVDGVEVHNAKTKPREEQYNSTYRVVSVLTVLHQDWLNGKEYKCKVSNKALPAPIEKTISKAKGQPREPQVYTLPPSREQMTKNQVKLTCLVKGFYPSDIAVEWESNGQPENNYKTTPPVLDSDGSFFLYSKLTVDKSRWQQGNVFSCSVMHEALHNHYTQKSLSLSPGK
light: EIVLTQSPATLSLSPGERATLSCRASSSVTYIHWYQQKPGQAPKSLIYATSNLASGIPARFSGSGSGTDFTLTISSLEPEDFAVYYCQHWSSKPPTFGGGTKVEIKRTVAAPSVFIFPPSDEQLKSGTASVVCLLNNFYPREAKVQWKVDNALQSGNSQESVTEQDSKDSTYSLSSTLTLSKADYEKHKVYACEVTHQGLSSPVTKSFNRGEC
B11 showed a dissociation constant Kd with human CD28 [6] of 26 nM.

B12: XENP44915 (bispecific antibody, human IgG1, kappa)
heavy: B11 heavy
scFv-Fc: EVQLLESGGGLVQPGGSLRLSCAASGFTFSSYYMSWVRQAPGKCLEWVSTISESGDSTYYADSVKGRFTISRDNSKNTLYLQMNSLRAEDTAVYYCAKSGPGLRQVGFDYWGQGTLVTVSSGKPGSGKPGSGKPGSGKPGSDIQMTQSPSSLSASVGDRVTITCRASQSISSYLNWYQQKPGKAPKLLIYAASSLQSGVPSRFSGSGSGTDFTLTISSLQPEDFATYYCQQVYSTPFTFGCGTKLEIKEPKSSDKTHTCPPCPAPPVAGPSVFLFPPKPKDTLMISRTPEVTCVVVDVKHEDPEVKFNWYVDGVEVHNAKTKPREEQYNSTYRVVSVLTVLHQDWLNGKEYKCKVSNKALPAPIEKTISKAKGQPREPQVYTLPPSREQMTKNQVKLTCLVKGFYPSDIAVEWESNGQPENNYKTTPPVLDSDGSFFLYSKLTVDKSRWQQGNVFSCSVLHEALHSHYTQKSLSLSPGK
light: B11 light
As for B12, in the assay with human CD28 [6], the Kd came to 130 nM.

B13: XENP46500 (antibody, human IgG1, kappa, V domains shown)
VH: QVQVQESGPGLVKPSQTLSLTCTVSGYSITSDYAWNWIRQPPGKKLEWIGYISNSGSTSYNPSLKSRVTISRDTSKNQFSLKLSSVTAADTAVYYCARERNYDYELYYYAMDYWGQGTLVTVSS
VL: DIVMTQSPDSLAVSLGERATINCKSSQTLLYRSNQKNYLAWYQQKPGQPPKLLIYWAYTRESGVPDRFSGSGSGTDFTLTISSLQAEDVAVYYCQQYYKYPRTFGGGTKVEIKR
notes: also called H1.21 and L1.115; copies: 2 + 2
Regarding B13, the binding result with STEAP1 is “binds”.

B14: XENP45835 (antibody, V domains shown)
VH: B13 VH with E105D, L106D
VL: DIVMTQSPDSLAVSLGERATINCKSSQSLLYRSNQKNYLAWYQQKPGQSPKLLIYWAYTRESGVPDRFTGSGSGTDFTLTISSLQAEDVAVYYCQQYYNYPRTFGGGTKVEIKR
notes: also called L1.56; H1 and L1.56; copies: 2 + 2
In the case of B14, the binding result with STEAP1 is recorded as “binds”.
